Source: patent publication US20260167699A1 (Chugai, published 2026)

T1: FcγRIIb extracellular domain with C-terminal His tag (human, UniProt P31994 43-217)
T1 construct: extracellular domain; also called 2b; CD32
T1 sequence: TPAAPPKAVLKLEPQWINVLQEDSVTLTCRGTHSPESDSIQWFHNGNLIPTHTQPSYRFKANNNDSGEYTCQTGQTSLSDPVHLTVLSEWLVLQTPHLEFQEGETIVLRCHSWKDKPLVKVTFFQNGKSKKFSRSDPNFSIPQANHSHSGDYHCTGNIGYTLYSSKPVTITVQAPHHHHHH

T2: FcγRIIa(R) extracellular domain with C-terminal His tag (human, UniProt P12318 34-217)
T2 construct: extracellular domain; R131 allotype; also called 2aR; CD32
T2 sequence: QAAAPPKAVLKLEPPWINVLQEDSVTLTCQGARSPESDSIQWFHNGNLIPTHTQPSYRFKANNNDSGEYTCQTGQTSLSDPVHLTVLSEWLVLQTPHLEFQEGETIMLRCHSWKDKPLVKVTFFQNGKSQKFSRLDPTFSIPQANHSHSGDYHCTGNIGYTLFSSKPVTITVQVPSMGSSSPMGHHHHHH

T3: FcγRIIa(H) extracellular domain with C-terminal His tag (human, UniProt P12318 34-217)
T3 construct: extracellular domain; H131 allotype; also called 2aH; CD32
T3 sequence: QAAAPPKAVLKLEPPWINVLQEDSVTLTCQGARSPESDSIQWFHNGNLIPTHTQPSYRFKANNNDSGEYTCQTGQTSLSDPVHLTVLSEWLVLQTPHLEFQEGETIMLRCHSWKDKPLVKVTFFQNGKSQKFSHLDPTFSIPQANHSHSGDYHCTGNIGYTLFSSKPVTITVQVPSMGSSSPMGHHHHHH


What was measured:
Experiment in all cases: SPR; % of GpH7-A5/GpH7-B3/GpL16-k0
[1] = molecular target: T1, FcγRIIb extracellular domain with …
[2] = molecular target: T2, FcγRIIa(R) extracellular domain with …
[3] = molecular target: T4, FcγRIIIa extracellular domain with C-terminal His tag (human, UniProt P08637 17-208)
T4 construct: extracellular domain; also called 3a; CD16
T4 sequence (P08637 other isoform, or with tags, fused parts or gaps): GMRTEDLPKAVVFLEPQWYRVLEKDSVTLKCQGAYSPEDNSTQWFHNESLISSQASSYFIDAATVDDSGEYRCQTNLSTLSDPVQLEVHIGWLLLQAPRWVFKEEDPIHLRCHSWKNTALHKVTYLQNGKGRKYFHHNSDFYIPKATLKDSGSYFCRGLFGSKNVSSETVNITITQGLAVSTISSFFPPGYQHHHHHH

[4] = molecular target: T5, FcγRIa extracellular domain with C-terminal His tag (human, UniProt P12314 16-292)
T5 construct: extracellular domain; also called 1a; CD64
T5 sequence (P12314 other isoform, or with tags, fused parts or gaps): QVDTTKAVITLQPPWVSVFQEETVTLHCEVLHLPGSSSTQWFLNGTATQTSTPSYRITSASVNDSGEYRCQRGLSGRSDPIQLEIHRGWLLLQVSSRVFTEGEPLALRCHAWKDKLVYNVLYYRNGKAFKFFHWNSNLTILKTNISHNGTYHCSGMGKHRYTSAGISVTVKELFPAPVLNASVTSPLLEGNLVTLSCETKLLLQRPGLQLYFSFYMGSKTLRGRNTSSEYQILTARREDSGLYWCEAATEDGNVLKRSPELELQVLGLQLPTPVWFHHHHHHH

[5] = molecular target: T3, FcγRIIa(H) extracellular domain with …

He/Con 2b [1] | He/Con 2aR [2] | He/Con 3a [3] | He/Con 1a [4] | He/Con 2aH [5] | Binder
113% | 105% | 68.4% | 106% | 88.1% | GpH7-A5/GpH7-B3 variant P331_06M/GpL16-k0 (antibody, human IgG1, kappa, heterodimerized IgG1 (He Ab), mutation in one H chain only; also called He Ab) heavy 1: not shown heavy 2: not shown light: DIVMTQSPLSLPVTPGEPASISCQASESLVHSNRNTYLHWYLQKPGQSPQLLIYKVSNRFSGVPDRFSGSGSGTDFTLKISRVEAEDVGVYYCSQNTHVPPTFGQGTKVEIERTVAAPSVFIFPPSDEQLKSGTASVVCLLNNFYPREAKVQWKVDNALQSGNSQESVTEQDSKDSTYSLSSTLTLSKADYEKHKVYACEVTHQGLSSPVTKSFNRGEC
107% | 104% | 80.9% | 108% | 94% | GpH7-A5/GpH7-B3 variant P331_13S/GpL16-k0 (antibody, human IgG1, kappa, heterodimerized IgG1 (He Ab), mutation in one H chain only; also called He Ab) heavy 1: not shown heavy 2: not shown light: DIVMTQSPLSLPVTPGEPASISCQASESLVHSNRNTYLHWYLQKPGQSPQLLIYKVSNRFSGVPDRFSGSGSGTDFTLKISRVEAEDVGVYYCSQNTHVPPTFGQGTKVEIERTVAAPSVFIFPPSDEQLKSGTASVVCLLNNFYPREAKVQWKVDNALQSGNSQESVTEQDSKDSTYSLSSTLTLSKADYEKHKVYACEVTHQGLSSPVTKSFNRGEC
104% | 101% | 71.6% | 109% | 93.6% | GpH7-A5/GpH7-B3 variant P331_09D/GpL16-k0 (antibody, human IgG1, kappa, heterodimerized IgG1 (He Ab), mutation in one H chain only; also called He Ab) heavy 1: not shown heavy 2: not shown light: DIVMTQSPLSLPVTPGEPASISCQASESLVHSNRNTYLHWYLQKPGQSPQLLIYKVSNRFSGVPDRFSGSGSGTDFTLKISRVEAEDVGVYYCSQNTHVPPTFGQGTKVEIERTVAAPSVFIFPPSDEQLKSGTASVVCLLNNFYPREAKVQWKVDNALQSGNSQESVTEQDSKDSTYSLSSTLTLSKADYEKHKVYACEVTHQGLSSPVTKSFNRGEC
127% | 112% | 74.9% | 109% | 89% | GpH7-A5/GpH7-B3 variant P331_15Y/GpL16-k0 (antibody, human IgG1, kappa, heterodimerized IgG1 (He Ab), mutation in one H chain only; also called He Ab) heavy 1: not shown heavy 2: not shown light: DIVMTQSPLSLPVTPGEPASISCQASESLVHSNRNTYLHWYLQKPGQSPQLLIYKVSNRFSGVPDRFSGSGSGTDFTLKISRVEAEDVGVYYCSQNTHVPPTFGQGTKVEIERTVAAPSVFIFPPSDEQLKSGTASVVCLLNNFYPREAKVQWKVDNALQSGNSQESVTEQDSKDSTYSLSSTLTLSKADYEKHKVYACEVTHQGLSSPVTKSFNRGEC
85% | 88.7% | 64.8% | 100% | 84.3% | GpH7-A5/GpH7-B3 variant P331_12R/GpL16-k0 (antibody, human IgG1, kappa, heterodimerized IgG1 (He Ab), mutation in one H chain only; also called He Ab) heavy 1: not shown heavy 2: not shown light: DIVMTQSPLSLPVTPGEPASISCQASESLVHSNRNTYLHWYLQKPGQSPQLLIYKVSNRFSGVPDRFSGSGSGTDFTLKISRVEAEDVGVYYCSQNTHVPPTFGQGTKVEIERTVAAPSVFIFPPSDEQLKSGTASVVCLLNNFYPREAKVQWKVDNALQSGNSQESVTEQDSKDSTYSLSSTLTLSKADYEKHKVYACEVTHQGLSSPVTKSFNRGEC
128% | 113% | 73.4% | 105% | 87.5% | GpH7-A5/GpH7-B3 variant P331_16H/GpL16-k0 (antibody, human IgG1, kappa, heterodimerized IgG1 (He Ab), mutation in one H chain only; also called He Ab) heavy 1: not shown heavy 2: not shown light: DIVMTQSPLSLPVTPGEPASISCQASESLVHSNRNTYLHWYLQKPGQSPQLLIYKVSNRFSGVPDRFSGSGSGTDFTLKISRVEAEDVGVYYCSQNTHVPPTFGQGTKVEIERTVAAPSVFIFPPSDEQLKSGTASVVCLLNNFYPREAKVQWKVDNALQSGNSQESVTEQDSKDSTYSLSSTLTLSKADYEKHKVYACEVTHQGLSSPVTKSFNRGEC
94% | 96.1% | 73.9% | 108% | 91.6% | GpH7-A5/GpH7-B3 variant P331_19Q/GpL16-k0 (antibody, human IgG1, kappa, heterodimerized IgG1 (He Ab), mutation in one H chain only; also called He Ab) heavy 1: not shown heavy 2: not shown light: DIVMTQSPLSLPVTPGEPASISCQASESLVHSNRNTYLHWYLQKPGQSPQLLIYKVSNRFSGVPDRFSGSGSGTDFTLKISRVEAEDVGVYYCSQNTHVPPTFGQGTKVEIERTVAAPSVFIFPPSDEQLKSGTASVVCLLNNFYPREAKVQWKVDNALQSGNSQESVTEQDSKDSTYSLSSTLTLSKADYEKHKVYACEVTHQGLSSPVTKSFNRGEC
100% | 101% | 95.2% | 103% | 98.7% | GpH7-A5/GpH7-B3 variant S337_01G/GpL16-k0 (antibody, human IgG1, kappa, heterodimerized IgG1 (He Ab), mutation in one H chain only; also called He Ab) heavy 1: not shown heavy 2: not shown light: DIVMTQSPLSLPVTPGEPASISCQASESLVHSNRNTYLHWYLQKPGQSPQLLIYKVSNRFSGVPDRFSGSGSGTDFTLKISRVEAEDVGVYYCSQNTHVPPTFGQGTKVEIERTVAAPSVFIFPPSDEQLKSGTASVVCLLNNFYPREAKVQWKVDNALQSGNSQESVTEQDSKDSTYSLSSTLTLSKADYEKHKVYACEVTHQGLSSPVTKSFNRGEC
123% | 109% | 71.9% | 107% | 85.8% | GpH7-A5/GpH7-B3 variant P331_20W/GpL16-k0 (antibody, human IgG1, kappa, heterodimerized IgG1 (He Ab), mutation in one H chain only; also called He Ab) heavy 1: not shown heavy 2: not shown light: DIVMTQSPLSLPVTPGEPASISCQASESLVHSNRNTYLHWYLQKPGQSPQLLIYKVSNRFSGVPDRFSGSGSGTDFTLKISRVEAEDVGVYYCSQNTHVPPTFGQGTKVEIERTVAAPSVFIFPPSDEQLKSGTASVVCLLNNFYPREAKVQWKVDNALQSGNSQESVTEQDSKDSTYSLSSTLTLSKADYEKHKVYACEVTHQGLSSPVTKSFNRGEC
110% | 104% | 67.1% | 106% | 87.2% | GpH7-A5/GpH7-B3 variant P331_18N/GpL16-k0 (antibody, human IgG1, kappa, heterodimerized IgG1 (He Ab), mutation in one H chain only; also called He Ab) heavy 1: not shown heavy 2: not shown light: DIVMTQSPLSLPVTPGEPASISCQASESLVHSNRNTYLHWYLQKPGQSPQLLIYKVSNRFSGVPDRFSGSGSGTDFTLKISRVEAEDVGVYYCSQNTHVPPTFGQGTKVEIERTVAAPSVFIFPPSDEQLKSGTASVVCLLNNFYPREAKVQWKVDNALQSGNSQESVTEQDSKDSTYSLSSTLTLSKADYEKHKVYACEVTHQGLSSPVTKSFNRGEC
111% | 104% | 67.8% | 102% | 86.5% | GpH7-A5/GpH7-B3 variant P331_14T/GpL16-k0 (antibody, human IgG1, kappa, heterodimerized IgG1 (He Ab), mutation in one H chain only; also called He Ab) heavy 1: not shown heavy 2: not shown light: DIVMTQSPLSLPVTPGEPASISCQASESLVHSNRNTYLHWYLQKPGQSPQLLIYKVSNRFSGVPDRFSGSGSGTDFTLKISRVEAEDVGVYYCSQNTHVPPTFGQGTKVEIERTVAAPSVFIFPPSDEQLKSGTASVVCLLNNFYPREAKVQWKVDNALQSGNSQESVTEQDSKDSTYSLSSTLTLSKADYEKHKVYACEVTHQGLSSPVTKSFNRGEC
128% | 112% | 68.7% | 108% | 90.1% | GpH7-A5/GpH7-B3 variant P331_10E/GpL16-k0 (antibody, human IgG1, kappa, heterodimerized IgG1 (He Ab), mutation in one H chain only; also called He Ab) heavy 1: not shown heavy 2: not shown light: DIVMTQSPLSLPVTPGEPASISCQASESLVHSNRNTYLHWYLQKPGQSPQLLIYKVSNRFSGVPDRFSGSGSGTDFTLKISRVEAEDVGVYYCSQNTHVPPTFGQGTKVEIERTVAAPSVFIFPPSDEQLKSGTASVVCLLNNFYPREAKVQWKVDNALQSGNSQESVTEQDSKDSTYSLSSTLTLSKADYEKHKVYACEVTHQGLSSPVTKSFNRGEC
93.9% | 94.6% | 61.8% | 100% | 83.7% | GpH7-A5/GpH7-B3 variant P331_11K/GpL16-k0 (antibody, human IgG1, kappa, heterodimerized IgG1 (He Ab), mutation in one H chain only; also called He Ab) heavy 1: not shown heavy 2: not shown light: DIVMTQSPLSLPVTPGEPASISCQASESLVHSNRNTYLHWYLQKPGQSPQLLIYKVSNRFSGVPDRFSGSGSGTDFTLKISRVEAEDVGVYYCSQNTHVPPTFGQGTKVEIERTVAAPSVFIFPPSDEQLKSGTASVVCLLNNFYPREAKVQWKVDNALQSGNSQESVTEQDSKDSTYSLSSTLTLSKADYEKHKVYACEVTHQGLSSPVTKSFNRGEC
127% | 109% | 60.4% | 106% | 80.1% | GpH7-A5/GpH7-B3 variant P331_07I/GpL16-k0 (antibody, human IgG1, kappa, heterodimerized IgG1 (He Ab), mutation in one H chain only; also called He Ab) heavy 1: not shown heavy 2: not shown light: DIVMTQSPLSLPVTPGEPASISCQASESLVHSNRNTYLHWYLQKPGQSPQLLIYKVSNRFSGVPDRFSGSGSGTDFTLKISRVEAEDVGVYYCSQNTHVPPTFGQGTKVEIERTVAAPSVFIFPPSDEQLKSGTASVVCLLNNFYPREAKVQWKVDNALQSGNSQESVTEQDSKDSTYSLSSTLTLSKADYEKHKVYACEVTHQGLSSPVTKSFNRGEC
106% | 101% | 66% | 105% | 85.9% | GpH7-A5/GpH7-B3 variant P331_08L/GpL16-k0 (antibody, human IgG1, kappa, heterodimerized IgG1 (He Ab), mutation in one H chain only; also called He Ab) heavy 1: not shown heavy 2: not shown light: DIVMTQSPLSLPVTPGEPASISCQASESLVHSNRNTYLHWYLQKPGQSPQLLIYKVSNRFSGVPDRFSGSGSGTDFTLKISRVEAEDVGVYYCSQNTHVPPTFGQGTKVEIERTVAAPSVFIFPPSDEQLKSGTASVVCLLNNFYPREAKVQWKVDNALQSGNSQESVTEQDSKDSTYSLSSTLTLSKADYEKHKVYACEVTHQGLSSPVTKSFNRGEC
